Data from PMC11074299, “Deciphering DED assembly mechanisms in FADD-procaspase-8-cFLIP complexes regulating apoptosis” (Nature Communications, 2024).

B3: full-length Casp-8 mutant F122G/L123G/C360A/D374A/D384A (natural protein, human, UniProt Q14790 1-479, looked up)
chain: MDFSRNLYDIGEQLDSEDLASLKFLSLDYIPQRKQEPIKDALMLFQRLQEKRMLEESNLSFLKELLFRINRLDLLITYLNTRKEEMERELQTPGRAQISAYRVMLYQISEEVSRSELRSFKGGLQEEISKCKLDDDMNLLDIFIEMEKRVILGEGKLDILKRVCAQINKSLLKIINDYEEFSKERSSSLEGSPDEFSNGEELCGVMTISDSPREQDSESQTLDKVYQMKSKPRGYCLIINNHNFAKAREKVPKLHSIRDRNGTHLDAGALTTTFEELHFEIKPHDDCTVEQIYEILKIYQLMDHSNMDCFICCILSHGDKGIIYGTDGQEAPIYELTSQFTGLKCPSLAGKPKVFFIQAAQGDNYQKGIPVETASEEQPYLEMALSSPQTRYIPDEADFLLGMATVNNCVSYRNPAEGTWYIQSLCQSLRERCPRGDDILTILTEVNYEVSNKDDKKNMGKQMPQPTFTLRKKLVFPSD
notes: procaspase-8 (Casp-8), human, full length with FGLG mutations, catalytic inactivity and processing deficiencies; only the tDED is visible in the cryo-EM maps (protease domain not visible); The methods name E. coli BL21-CodonPlus only for FADD, the Casp-8 tDED mutant and cFLIP tDED; also called Casp-8^tDED molecules C8a, C8b, C8c (triple-FADD complex)
B4: full-length FADD H9G mutant (FADD^FuL_H9G) (natural protein)
chain: MDPFLVLLGSVSSSLSSSELTELKFLCLGRVGKRKLERVQSGLDLFSMLLEQNDLEPGHTELLRELLASLRRHDLLRRVDDFEAGAAAGAAPGEEDLCAAFNVICDNVGKDWRRLARQLKVSDTKIDSIEDRYPRNLTERVRESLRIWKNTEKENATVAHLVGALRSCQMNLVADLVQEVQQARDLQNRSGAMSPMSWNSDASTSEAS
notes: Fas-associated protein with death domain (FADD), human, full length, H9G; only the DED is visible in the crystal structure (FADD DD not visible); A selenomethionine-substituted complex was also made for phasing (PDB 8YD7); also called FADD^DED molecule FAl; source: E. coli BL21-CodonPlus, co-purified in the ternary complex (Ni-NTA, SEC); not shown: 6xHis, C-terminal, kept
B5: wild-type full-length FADD (FADD^FuL) (natural protein, human, UniProt Q13158 1-208, looked up)
chain: MDPFLVLLHSVSSSLSSSELTELKFLCLGRVGKRKLERVQSGLDLFSMLLEQNDLEPGHTELLRELLASLRRHDLLRRVDDFEAGAAAGAAPGEEDLCAAFNVICDNVGKDWRRLARQLKVSDTKIDSIEDRYPRNLTERVRESLRIWKNTEKENATVAHLVGALRSCQMNLVADLVQEVQQARDLQNRSGAMSPMSWNSDASTSEAS
notes: Fas-associated protein with death domain (FADD), human, wild type, full length; only the DED is visible in the cryo-EM maps; also called FA^FuL; WT FADD; source: E. coli BL21-CodonPlus; co-purified in the ternary complex (Ni-NTA, SEC); also in precipitates of overexpressed proteins resuspended in water; not shown: 6xHis, C-terminal, kept

Assays:
[1] = target: B5; experiment: negative-stain EM; C8^FGLG purified by SEC, in the presence of WT FADD with a C-terminal His-tag; FADD detected by Ni-NTA Nanogold; SDS-PAGE of the EM sample; conditions: both partners purified
[2] = target: B4; experiment: crystal structure; FA^FuL_H9G-C8^FGLG-CF^H7G complex; proteins individually expressed in E. coli, complex co-purified by Ni-NTA and SEC (80 mM NaCl, 20 mM Tris pH 8.0); hanging drop, 20 °C; MR-SAD; 3.1 Å; one 1:5:4 complex per asymmetric unit; FADD DD not visible; conditions: both partners purified
[3] = target: cFLIP^tDED H7G mutant (human, UniProt O15519 1-181, H7G); experiment: as above; conditions: both partners purified
[4] = target: the molecule itself; experiment: SEC + other: negative-stain EM; Casp-8^tDED_F122A and CF^H7G co-expressed; SEC profile, negative-stain EM and SDS-PAGE of the peak fractions
[5] = target: wild-type cFLIP^tDED (human, UniProt O15519 1-181); experiment: cryo-EM structure; FA^FuL-C8^FuL_FGLG_CADA-CF complex; Complex A without cross-linking (7.5 Å) and Complex B stabilised by GraFix, glutaraldehyde (3.7 Å); Casp-8 protease domain and FADD DD not visible; conditions: both partners purified
[6] = target: the molecule itself; experiment: as above
[7] = target: B3; experiment: as above; conditions: both partners purified

B1: Casp-8^tDED_F122G/L123G mutant (domain or fragment, human, UniProt Q14790 1-185, looked up)
chain: MDFSRNLYDIGEQLDSEDLASLKFLSLDYIPQRKQEPIKDALMLFQRLQEKRMLEESNLSFLKELLFRINRLDLLITYLNTRKEEMERELQTPGRAQISAYRVMLYQISEEVSRSELRSFKGGLQEEISKCKLDDDMNLLDIFIEMEKRVILGEGKLDILKRVCAQINKSLLKIINDYEEFSKER
notes: procaspase-8 (Casp-8) tandem DED, human, residues 1-185, F122G/L123G (FGLG) in the FL motif of DED2; The methods name no tag for this protein; also called C8^FGLG; source: E. coli BL21-CodonPlus; co-purified in the ternary complex (Ni-NTA, SEC); also purified alone by SEC
binding result [1]: binds
binding result [2]: binds
binding result [3]: binds

B2: Casp-8^tDED F122A mutant (Casp-8^tDED_F122A) (domain or fragment, human, UniProt Q14790 1-185, looked up)
chain: MDFSRNLYDIGEQLDSEDLASLKFLSLDYIPQRKQEPIKDALMLFQRLQEKRMLEESNLSFLKELLFRINRLDLLITYLNTRKEEMERELQTPGRAQISAYRVMLYQISEEVSRSELRSFKALLQEEISKCKLDDDMNLLDIFIEMEKRVILGEGKLDILKRVCAQINKSLLKIINDYEEFSKER
notes: source: E. coli, co-expressed with CF^H7G, SEC
binding result [4]: binds

B3
binding result [5]: binds
stoichiometry N [6]: 3

B4
binding result [3]: binds

B5
binding result [7]: binds
